Experimental data published in patent publication US20220048967A1 (published 2022).

T1: human gastric inhibitory peptide receptor (GIPR) (human, UniProt P48546 22-466)
T1 sequence (looked up): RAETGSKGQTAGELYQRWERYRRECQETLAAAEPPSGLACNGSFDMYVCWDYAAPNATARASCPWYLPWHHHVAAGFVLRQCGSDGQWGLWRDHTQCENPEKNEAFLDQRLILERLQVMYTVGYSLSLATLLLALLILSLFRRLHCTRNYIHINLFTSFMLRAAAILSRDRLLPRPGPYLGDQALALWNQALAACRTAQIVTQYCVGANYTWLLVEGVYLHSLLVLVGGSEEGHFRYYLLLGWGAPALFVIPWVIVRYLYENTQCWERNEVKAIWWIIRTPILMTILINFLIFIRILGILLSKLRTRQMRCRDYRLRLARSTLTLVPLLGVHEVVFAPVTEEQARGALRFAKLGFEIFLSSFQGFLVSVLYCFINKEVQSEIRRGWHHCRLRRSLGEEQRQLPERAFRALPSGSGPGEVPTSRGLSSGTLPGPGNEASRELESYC


How the values were obtained:
[1] = target: T1, human gastric inhibitory peptide …; experiment: cell-based or functional assay
[2] = target: human GLP-1 receptor (GLP-1R) (human, UniProt P43220 24-463); experiment: cell-based or functional assay
Throughout, for hGIPR cAMP EC50 ratio: reference of the scale not given here.
Throughout, for hGLP1R cAMP EC50 ratio: reference of the scale not given here.

Binder | hGIPR cAMP EC50 ratio [1] | hGIPR cAMP Rel EC50 [1] [nM] | hGLP1R cAMP EC50 ratio [2] | hGLP1R cAMP Rel EC50 [2] [nM]
YXEGTXTSDXSIXLDEKAQXEFIXYLIEGGPSSGAPPPS (Y-Aib-EGT-αMeF(2F)-TSD-(D-Tyr)-SI-αMeF-LDEK((2-[2-(2-Amino-ethoxy)-ethoxy]-acetyl)2-(γ-Glu)-CO-(CH2)18-CO2H)AQ-Aib-EFI-(D-Glu)-YLIEGGPSSGAPPPS-NH2) [Example 184] | 2.45 | 0.0477 | 0.135 | 0.392
YXEGTXTSDXSIXLDEKAQXEFIXYLIEGGPSSGAPPPS (Y-Aib-EGT-αMeF(2F)-TSD-(D-His)-SI-αMeF-LDEK((2-[2-(2-Amino-ethoxy)-ethoxy]-acetyl)2-(γ-Glu)-CO-(CH2)18-CO2H)AQ-Aib-EFI-(D-Glu)-YLIEGGPSSGAPPPS-NH2) [Example 185] | 0.185 | 0.632 | 0.00739 | 7.16
YXEGTXTSDQSIXLDEKAQXEFIXYLIEGGPSSGAPPPS (Y-Aib-EGT-αMeF(2F)-TSDQSI-αMeF-LDEK((2-[2-(2-Amino-ethoxy)-ethoxy]-acetyl)2-(γ-Glu)-CO-(CH2)18-CO2H)AQ-Aib-EFI-(D-Glu)-YLIEGGPSSGAPPPS-NH2) [Example 187] | 4.61 | 0.0371 | 0.702 | 0.0577
YXEGTXTSDXSIXLDEKAQXEFIXYLIEGGPSSGAPPPS (Y-Aib-EGT-αMeF(2F)-TSD-3Pal-SI-αMeF-LDEK((2-[2-(2-Amino-ethoxy)-ethoxy]-acetyl)2-(γ-Glu)-CO-(CH2)18-CO2H)AQ-Aib-EFI-Aib-YLIEGGPSSGAPPPS-NH2) [Example 188] | 0.969 | 0.121 | 0.408 | 0.13
YXEGTXTSDXSIXLDEKAQXEFIXYLIEGGPSSGAPPPS (Y-Aib-EGT-αMeF(2F)-TSD-4Pal-SI-αMeF-LDEK((2-[2-(2-Amino-ethoxy)-ethoxy]-acetyl)2-(γ-Glu)-CO-(CH2)18-CO2H)AQ-Aib-EFI-Aib-YLIEGGPSSGAPPPS-NH2) [Example 189] | 2.41 | 0.0775 | 0.668 | 0.0608
HXEGTXTSDXSIXLDEKAQXEFIXYLIEGGPSSGAPPPS (H-Aib-EGT-αMeF(2F)-TSD-3Pal-SI-αMeF-LDEK((2-[2-(2-Amino-ethoxy)-ethoxy]-acetyl)2-(γ-Glu)-CO-(CH2)18-CO2H)AQ-Aib-EFI-(D-Glu)-YLIEGGPSSGAPPPS-NH2) [Example 190] | 0.158 | 0.738 | 2.2 | 0.0241
